Experimental findings from the NTF2 design screens of Basanta et al. (2020) are described below.

The data set can be described thus: protease stability score; higher = more stable; yeast display proteolysis, trypsin and chymotrypsin.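 Also: relative to predicted unfolded state with 0 unfolded-like and 1 meaning tenfold more protease.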
“SEEEHHDRMVSHLWIKLWSTGDEDRIRELLDPNAKFELEQGDKEVHDHGRESIAKWLEIMFRHLGVKHFRLEHVHVFNGRIEVIMRLDVGDKHITIILRTQVIDGRIKSFVIETRHK” had a protease stability score of 1.17.
The same measure for “SHLEEHLKENLKREEEARRTGDFRFFSRLADPHVKIIINGVELHGMETYNEHWRQIWHDSHHMEITSIDVQGDKIEADIRIIEHGRINGVRESIVLTVRLRFEKINGRWVLTMIIIE”: 0.077; for “DEETEISRRALKIFLDTIHTGDPRELKENLDPSVRIIINGVHYHGRESFEHVLERVEKSAGVDRVHVELRDFRIYGDKVEVEVTNHFNGRTEIDHFILRKVNGRWYIHEVEFE”: 2.18.
The same measure for “DEFHHWYERVIQEFDHAVETGNEHRIRELLDPNVRIIIDGQDLHGREDMIHLISEIRVSITDRRERSFRPVGDKINLLMRVDQQVFVDGQTEQVDTEVRWIIIKVNGVWLIRRIEVI”: 1.47; for “SEEEHEAIKHAYEFLEWLRTGDEEKIEKLLDPNVRLIIGDKTAHGREEFIRVMKEELERMGVNVFRLRDTRVNIFDGRVEIRFDTDLHFNGKTVHVELILRVHKVDGRWVLESVQVNIH”: 1.48.
Consider “SEEEKLRKSLVELILHALHTGDWERLTRLLDPHVRWDQGDKVFHGREDFKRAWTELGVDHFQLRHIEMQGDKLHIKGEMHVNGRTIHVDLDIEIINGRIEHHRVDTK”, for which the protease stability score turned out to be 1.35.
The same measure for “SEEEEYARHFMTLVMSNLHTGNFEESRQNADPRTRVVIGDKRLHGWDEFAREYHEELRDRGVEIHFRVHHIEEFDGRLLTDFSIEIRYGDKVDHIRIRLYVTKINGRWFIKELEFR”: 1.1; for “SEDEEKTRKFIELFLYLWVTGDEDSLSELLDPNVRAEVNGKSAHGRDEVSKLSDVFMKELGVKHTRQTTQHRYEIQGDKLKSHLTIDIEVDGQNVKEFVVIVVEKINGRWIIRHIRFE”: 1.1.
Regarding “SEEHEEAEHWVRLFIEFMLTGDFDEYRQLMDPNDYIEVGDKSLIGMENWHHLLNRVKNLTIRVKRVRVRVVNGRIHVEMDVRDIINGQEVETRIEMVAVKVNGRWLLKTVHLERE”, the protease stability score is 1.74.
Then “DEEEEKSKRMLEIIIHAVMTGDFQHLLDNMDPHVKLDIDGVDLHGRESAEEFVKKVKNLTLHDWKLDHWHIQGDKVTMHVTIDGLYNGKKERTRVIIIALKINGQWHIKSMKID”, with 1.9; and “DEEEEWLREVLRLIIEFLKTGDEDRLNEMADPTTRLRVGEFHHVGREEVHKFRKKKKDELGVDKIEFRLEDVRIQGDKATADGRVQYNGQEYKMRVIVVVVNGKVKSLTEEWE”, with 1.07; and “HEEEELLERAMKELEHILRTGDWELHEKNADPHVKLDVNGRIVHGRELVITVLRRLFEELGVDHIHLHDFKVVGDKMHIDLRIHVGDKEFQLEIIIIKIDGRWHIHSERFN”, with 0.363.
The same measure for “SNEDEIAQHLVRLILNAHLTGDEKLLETLADPTMRFTLRIGDKQHERHGREEWIKWVRHTIERIDHIEIRIDDRRIQGDKIEIDGTLRLEIGDKVNQVRVDIIIHLVNGRLKEVIIEVV”: 2.06; for “EEDDRDLEDLLTKLDSAIQTGNWEILHHLIDPHARSHYNGRDFHGWRDLEFLLRIIVEEIRLDTVDMKHHEFYGDKMRLETTLTGEVNGQKTEFTTVLIYLKIDGKWVIHNFEVR”: 0.729; for “DEDEKEATHWWRLLIKNIETGDEKSEKELLDPHARVEIGEFESVGRETVAEMWFRLMEHIRLKDSHEKDFDMQGDYMHVNGHVVGEYNGKHIKSDVRIILIVIDGRVKEVTVKIH”: 0.208.
The same measure for “DEDDELMKRFVDLLLEQLQTGDWRYIARMVDPHVRSDVDIDGVHLKYHGREMYVKLFTDLGAKHMELKHIEVQGDKADIHSHVHFDGQEREIIIYSFKVNGRWRTKRLEVRTI”: 0.932; for “SEEEEFVELAVRLFLETMRTGDEKDINRLADPHTRNIVNGRDIIGREELTRQLHEILHFFKNVQVHIEEVRWQGNYIVLKILWNFDGQTMEVHVYARKIDGRWVETEFEFR”: 2.08.
In turn, “DEEEENMRIAFKLLIEMHRTGDPEEHLELFDPHVRSIIGDKEYHGWEEYMRWIQHARVKELKLDSHRVYNGRVELDVRINVDVNGREIDREVHIIAEKVNGRWHFKSVRVL” displayed a protease stability score of 1.41.
